Laboratory results as given in patent US20110262396A1, “COMBINATION TREATMENTS COMPRISING PROTEASE BINDING PROTEINS FOR INFLAMMATORY DISORDERS” (DYAX CORP., priority 2008, published 2011).

How the values were obtained:
[1] = system: MMP-14 expressed in synovial cells; assay: Collagen film degradation by human synovial cells (Example 8); assay type: cell-based; details: human fibroblasts on bovine type I collagen film, 4 days, data not shown; for collagen film degradation: 37° C.
Method: Human rheumatoid synovial fibroblasts spontaneously express high levels of MMP-14 (Miller et al, 2009 Arthritis Rheum. 2009 March; 60(3):686-97). When they are cultured on collagen film, MMP-14 expressed in synovial cells effectively degrades the collagen film. Human fibroblasts were cultured on bovine type I collagen film at 37° C. for 4 days in the presence or absence of a broad spectrum MMP-inhibitor GM6001, DX-2400 or DX-2410. Cells were then removed from collagen surface by trypsin/EDTA to reveal collagen film. Films were then fixed with 3% PFA for 30 min. and stained with Coomassie blue.

[2] = system: collagen-induced arthritis (CIA); assay: CIA mouse model, DX-2712 as monotherapy or combined with DMARDs or BRMs (Example 7); assay type: in vivo, mouse (DBA/1); details: end of study, 31 days of therapy; number in parentheses = dose in mg/kg (Table 12); DX-2712 20 mg/kg IP Q2D
[3] = Platelet function screening test
HT-1080 (fibrosarcoma) = assay: Invasion of HT-1080 through Matrigel; assay type: cell-based; details: DX-1000 1 nM
Method: (§1) Firstly, DX-1000 (1 nM) inhibited both DHT-stimulated invasion of LNCaPs (prostate cancer) and HT-1080 (fibrosarcoma) through Matrigel, processes known to be dependent on the plasminogen/plasmin system.

human endothelial cells = assay: Tube formation of human endothelial cells; assay type: cell-based; details: 1-10 nM; plated on Matrigel or collagen type I
mouse endothelial cells = assay: Tube formation of mouse endothelial cells; assay type: cell-based; details: 1-10 nM; plated on Matrigel or collagen type I
LNCaPs (prostate cancer) = assay: DHT-stimulated invasion of LNCaPs through Matrigel; assay type: cell-based; details: DX-1000 1 nM
Method: as §1

[4] = Global coagulation screening tests
gelatinases = assay: Expression and activation of gelatinases; assay type: cell-based
human plasmin = target: T1, human plasmin (human, UniProt P00747 97-810, limits assumed); assay: inhibition of human plasmin; method not described
T1 construct: In the cell invasion assays the plasmin is that of the cell cultures
T1 sequence (P00747 97-810 limits assumed): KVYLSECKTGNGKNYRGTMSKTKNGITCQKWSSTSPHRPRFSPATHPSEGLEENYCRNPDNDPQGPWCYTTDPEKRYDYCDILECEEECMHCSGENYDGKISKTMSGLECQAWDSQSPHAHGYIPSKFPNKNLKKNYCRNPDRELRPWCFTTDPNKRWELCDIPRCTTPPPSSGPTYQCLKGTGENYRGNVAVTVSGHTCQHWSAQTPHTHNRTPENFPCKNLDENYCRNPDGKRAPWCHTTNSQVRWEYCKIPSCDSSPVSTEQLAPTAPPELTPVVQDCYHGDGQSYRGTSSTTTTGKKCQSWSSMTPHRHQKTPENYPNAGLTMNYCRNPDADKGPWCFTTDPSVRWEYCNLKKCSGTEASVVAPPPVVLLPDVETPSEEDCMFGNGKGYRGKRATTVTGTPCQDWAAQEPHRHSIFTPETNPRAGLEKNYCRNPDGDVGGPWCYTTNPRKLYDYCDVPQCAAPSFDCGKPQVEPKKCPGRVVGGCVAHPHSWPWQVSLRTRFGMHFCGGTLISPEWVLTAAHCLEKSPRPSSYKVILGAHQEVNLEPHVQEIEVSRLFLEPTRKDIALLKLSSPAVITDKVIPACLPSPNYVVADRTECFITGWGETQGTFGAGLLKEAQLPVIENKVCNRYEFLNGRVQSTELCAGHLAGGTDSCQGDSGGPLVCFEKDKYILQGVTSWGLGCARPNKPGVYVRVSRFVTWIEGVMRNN

[5] = system: collagen-induced arthritis (CIA); assay: MMP-12 inhibition in mouse collagen-induced arthritis (Example 1); assay type: in vivo; details: 20 mg/kg IP Q2D
Excerpt: The study design was as depicted in Table 6 below. [table]

human MMP-9 = human MMP-9 (Homo sapiens, UniProt P14780); assay: Inhibition of human MMP-9; assay type: biochemical
Sequence of human MMP-9 (P14780 94-707): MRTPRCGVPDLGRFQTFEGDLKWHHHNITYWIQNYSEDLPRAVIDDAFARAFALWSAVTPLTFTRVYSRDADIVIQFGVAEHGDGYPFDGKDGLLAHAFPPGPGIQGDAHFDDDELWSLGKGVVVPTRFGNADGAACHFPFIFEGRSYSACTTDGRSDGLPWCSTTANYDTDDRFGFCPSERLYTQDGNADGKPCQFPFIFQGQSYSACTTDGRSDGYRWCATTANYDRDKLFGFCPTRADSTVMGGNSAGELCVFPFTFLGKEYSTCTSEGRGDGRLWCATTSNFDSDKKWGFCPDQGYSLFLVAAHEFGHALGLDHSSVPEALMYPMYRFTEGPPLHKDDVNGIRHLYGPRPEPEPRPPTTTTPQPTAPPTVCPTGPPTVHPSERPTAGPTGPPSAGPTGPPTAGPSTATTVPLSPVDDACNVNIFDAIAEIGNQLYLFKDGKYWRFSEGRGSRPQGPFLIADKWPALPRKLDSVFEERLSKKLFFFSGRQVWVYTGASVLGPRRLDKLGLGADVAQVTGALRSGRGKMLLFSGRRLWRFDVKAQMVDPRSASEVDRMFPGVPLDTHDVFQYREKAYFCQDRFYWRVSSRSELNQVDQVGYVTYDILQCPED

mouse MMP-9 = mouse MMP-9 (Mus musculus, UniProt P41245); assay: Inhibition of mouse MMP-9; assay type: biochemical
Sequence of mouse MMP-9 (P41245 108-730): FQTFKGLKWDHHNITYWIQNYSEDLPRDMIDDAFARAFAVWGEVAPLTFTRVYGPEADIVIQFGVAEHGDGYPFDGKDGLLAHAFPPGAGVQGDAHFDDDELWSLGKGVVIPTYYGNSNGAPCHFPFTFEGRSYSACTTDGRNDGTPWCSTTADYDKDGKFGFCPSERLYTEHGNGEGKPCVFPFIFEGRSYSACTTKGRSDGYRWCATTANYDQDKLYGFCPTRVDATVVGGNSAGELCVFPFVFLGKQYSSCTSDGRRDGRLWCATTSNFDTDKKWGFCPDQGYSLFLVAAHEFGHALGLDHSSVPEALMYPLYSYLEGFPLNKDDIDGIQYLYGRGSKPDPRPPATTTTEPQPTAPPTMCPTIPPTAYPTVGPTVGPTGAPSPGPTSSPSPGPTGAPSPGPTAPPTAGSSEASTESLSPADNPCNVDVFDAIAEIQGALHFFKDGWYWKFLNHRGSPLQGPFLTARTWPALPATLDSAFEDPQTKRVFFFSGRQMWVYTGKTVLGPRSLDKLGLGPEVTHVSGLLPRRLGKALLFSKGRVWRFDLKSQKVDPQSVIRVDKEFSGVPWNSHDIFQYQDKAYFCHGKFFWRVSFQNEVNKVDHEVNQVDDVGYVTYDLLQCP

[6] = system: collagen-induced arthritis (CIA); assay: DX-2400 and DX-2410 in CIA mouse model (Example 10); assay type: in vivo, mouse (DBA); details: 20 mg/kg i.p. 3x/week from day 21 after collagen injection; for development of arthritis as assessed by histological analysis of the joints: FIG. 9(A)
Method: 200 μg of chicken type II collagen was injected subcutaneously with complete Freunds adjuvant in DBA mice (male, 3-4 months old). After 21 days, test compounds were administered i.p. at 20 mg/kg, 3×/week. The first mouse which developed clinical symptom of arthritis was detected 26 days after collagen injection. […] FIG. 9(B) provides a description of the histology scoring system used.

Q: For `CNC(=O)[C@H](Cc1c[nH]c2ccccc12)NC(=O)[C@@H](CC(=O)NO)CC(C)C` [GM6001, reference compound], which collagen film degradation [1] is on record?
A: completely abolished

Q: For `CN(Cc1cnc2nc(N)nc(N)c2n1)c1ccc(C(=O)N[C@@H](CCC(=O)O)C(=O)O)cc1` [MTX (3), methotrexate], which “% change in AI Score” value [2] is on record?
A: −80.74%

Q: Which “effects on a platelet function screening test” value [3] does the source give for “DX-1000: Kunitz domain polypeptide that inhibits human plasmin; SEQ ID NO:100 or SEQ ID NO:200 (EAMHSFCAFKAETGPCRARFDRWFFNIFTRQCEEFIYGGCEGNQNRFESLEECKKMCTRD)” here?
A: no clinically significant effects

Q: And the “invasion of HT-1080 through Matrigel” value (HT-1080 (fibrosarcoma))?
A: inhibited

Q: What about the “tube formation of human endothelial cells” value (human endothelial cells) of the same molecule?
A: efficiently blocked

Q: What about the “tube formation of mouse endothelial cells” value (mouse endothelial cells) of the same molecule?
A: efficiently blocked

Q: What about the “DHT-stimulated invasion of LNCaPs through Matrigel” value (LNCaPs (prostate cancer)) of the same molecule?
A: inhibited

Q: What about the “effects on global coagulation screening tests” value [4] of the same molecule?
A: no clinically significant effects

Q: And the “expression and activation of gelatinases” value (gelatinases)?
A: down-regulated efficiently

Q: With Etanercept [Enbrel (30)] as the molecule, how does the “% change in AI Score” value [2] read?
A: −70.37%

B1: DX-1000 (designed binder)
chain: EAMHSFCAFKAETGPCRARFDRWFFNIFTRQCEEFIYGGCEGNQNRFESLEECKKMCTRD
Q: Which Ki (human plasmin) does the source give for B1 here?
A: 0.088 nM

B2: DX-2712: Dyax inhibitor of MMP-12; specific MMP-12 antibody inhibitor; VL SEQ ID NO:118, VH SEQ ID NO:120 (antibody, V domains shown)
VH: EVQLLESGGGLVQPGGSLRLSCAASGFTFSWYWMHWVRQAPGKGLEWVSGISPSGGMTMYADSVKGRFTISRDNSKNTLYLQMNSLRAEDTAVYYCARDIVGPYSAGLFDYWGRGTLVTVSS
VL: DIQMTQSPSSLSASVGDRVTITCRASQSIYTYLNWYQQKPGKAPKLLIYAASSLQSGVPSRFSGSGSGTDFTLTISSLQPEDFATYYCQQAGIFGQGTKLEIK
Q: For B2, which “% change in AI Score” value [2] is on record?
A: −34.07%

Q: And the “overall inhibition of the arthritic histological indices” value ([5]; compared to untreated mice, p<0.05, FIG. 3)?
A: 29%

Q: And the “disease development (arthritic score)” value ([5]; days 36-46, FIG. 2)?
A: arrested

Q: What about the arthritic score ([5]; last day of the study, FIG. 2) of the same molecule?
A: sharp increase in arthritic score

Q: And the “disease development (arthritic score)” value ([5]; through day 35, FIG. 2)?
A: delayed disease development

B3: 539A-M0240-B03: selective inhibitor of MMP-9; parental isolate (sFab; IgG) (antibody, V domains shown)
VL: QYELTQPRSVSGSPGQSVTISCTGTSSDVGGYNYVSWYQQHPGKAPKLMIYDVSKRPSGVPDRFSGSKSGNTASLTISGLQAEDEADYYCCSYAGSYTLVFGGGTKLTVL
VH: EVQLLESGGGLVQPGGSLRLSCAASGFTFSTYQMVWVRQAPGKGLEWVSVIYPSGGPTVYADSVKGRFTISRDNSKNTLYLQMNSLRAEDTAVYYCARGEDYYDSSGPGAFDIWGQGTMVTVSS
Q: Which results are given for B3?
A: inhibition of human MMP-9 activity (human MMP-9): can decrease or inhibit the activity; inhibition of mouse MMP-9 activity (mouse MMP-9): can decrease or inhibit the activity

B4: DX-2400: exemplary MMP-14 antibody; VH SEQ ID NO:59, VL SEQ ID NO:23 (antibody, V domains shown)
VH: EVQLLESGGGLVQPGGSLRLSCAASGFTFSLYSMNWVRQAPGKGLEWVSSIYSSGGSTLYADSVKGRFTISRDNSKNTLYLQMNSLRAEDTAVYYCARGRAFDIWGQGTMVTVSS
VL: DIQMTQSPSSLSASVGDRVTITCRASQSVGTYLNWYQQKPGKAPKLLIYATSNLRSGVPSRFSGSGSGTDFTLTISSLQPEDFATYYCQQSYSIPRFTFGPGTKVDIK
Q: Which “redness and swelling of paws” value [6] does the source give for B4 here?
A: did not significantly improve

Q: What about the “development of arthritis as assessed by histological analysis of the joints” value [6] of the same molecule?
A: significantly attenuated

Q: And the “inhibition of collagen film degradation at 500 nM” value [1]?
A: almost complete inhibition

Q: And the collagen film degradation [1]?
A: inhibited collagen degradation in a dose-dependent manner

B5: DX-2410: exemplary MMP-14 antibody; VH SEQ ID NO:24, VL SEQ ID NO:25 (antibody, V domains shown)
VH: EVQLLESGGGLVQPGGSLRLSCAASGFTFSVYGMVWVRQAPGKGLEWVSVISSSGGSTWYADSVKGRFTISRDNSKNTLYLQMNSLRAEDTAVYYCARPFSRRYGVFDYWGQGTLVTVSS
VL: DIQMTQSPSSLSASVGDRVTITCRASQGIRNFLAWYQQKPGKVPKLLIYGASALQSGVPSRFSGSGSGTDFTLTISSLQPEDVATYYCQKYNGVPLTFGGGTKVEIK
Q: Which results are given for B5?
A: redness and swelling of paws [6]: did not significantly improve; development of arthritis as assessed by histological analysis of the joints [6]: significantly attenuated; inhibition of collagen film degradation at 500 nM [1]: slightly lower than DX-2400, showing degraded area; collagen film degradation [1]: inhibited collagen degradation in a dose-dependent manner
